According to US20050215509:

T1: recombinant SCCA-1 with a polyhistidine tag (6x His), P29508
T1 chain: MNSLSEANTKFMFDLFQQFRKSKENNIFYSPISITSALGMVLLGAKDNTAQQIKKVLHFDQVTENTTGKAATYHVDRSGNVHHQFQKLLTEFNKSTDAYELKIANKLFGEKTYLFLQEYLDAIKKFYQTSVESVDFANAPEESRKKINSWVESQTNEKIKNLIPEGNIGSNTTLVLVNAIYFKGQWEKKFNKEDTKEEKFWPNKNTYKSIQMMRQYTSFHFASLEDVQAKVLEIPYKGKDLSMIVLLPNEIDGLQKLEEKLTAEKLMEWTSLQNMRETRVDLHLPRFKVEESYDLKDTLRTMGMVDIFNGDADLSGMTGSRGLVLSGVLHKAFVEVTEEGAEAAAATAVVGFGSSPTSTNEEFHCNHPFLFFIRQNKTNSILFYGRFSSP

B1: active recombinant phosphorylated JNK-2 (Cell Signaling) (protein)
chain: MSDSKCDSQFYSVQVADSTFTVLKRYQQLKPIGSGAQGIVCAAFDTVLGINVAVKKLSRPFQNQTHAKRAYRELVLLKCVNHKNIISLLNVFTPQKTLEEFQDVYLVMELMDANLCQVIHMELDHERMSYLLYQMLCGIKHLHSAGIIHRDLKPSNIVVKSDCTLKILDFGLARTACTNFMMTPYVVTRYYRAPEVILGMGYKENVDIWSVGCIMGELVKGCVIFQGTDHIDQWNKVIEQLGTPSAEFMKKLQPTVRNYVENRPKYPGIKFEELFPDWIFPSESERDKIKTSQARDLLSKMLVIDPDKRISVDEALRHPYITVWYDPAEAEAPPPQIYDAQLEEREHAIEEWKELIYKEVMDWEERSKNGVVKDQPSDAAVSSNATPSQSSSINDISSMSTEQTLASDTDSSLDASTGPLEGCR
B2: active recombinant phosphorylated JNK-1 (Cell Signaling) (protein)
chain: MSRSKRDNNFYSVEIGDSTFTVLKRYQNLKPIGSGAQGIVCAAYDAILERNVAIKKLSRPFQNQTHAKRAYRELVLMKCVNHKNIIGLLNVFTPQKSLEEFQDVYIVMELMDANLCQVIQMELDHERMSYLLYQMLCGIKHLHSAGIIHRDLKPSNIVVKSDCTLKILDFGLARTAGTSFMMTPYVVTRYYRAPEVILGMGYKENVDLWSVGCIMGEMVCHKILFPGRDYIDQWNKVIEQLGTPCPEFMKKLQPTVRTYVENRPKYAGYSFEKLFPDVLFPADSEHNKLKASQARDLLSKMLVIDASKRISVDEALQHPYINVWYDPSEAEAPPPKIPDKQLDEREHTIEEWKELIYKEVMDLEERTKNGVIRGQPSPLAQVQQ

Biological target: T1, recombinant SCCA-1 with a polyhistidine …

Row | Protein | amount of phosphorylated c-Jun (in vitro pull-down JNK kinase assay on c-Jun fused protein beads, western blot with anti-phosphorylated c-Jun antibody)
1 | B1 | in the case of incubating SCCA-1 with active JNK-2, there was no significant decrease in the amount of phosphorylated c-Jun observed as compared with the control
2 | B2 | in the case of incubating SCCA-1 with active JNK-1, the amount of phosphorylated c-Jun decreased remarkably as compared with the control not containing SCCA-1
